{
  "source": "the RNAGym collection of RNA variant scans (doi:10.1038/ncomms11558)",
  "parents": {"B1": {"name": "mRNA-splicing (parent)", "chain": "GAUCCAGAUCUAACUUGGGGUGGCUUUGUCUUCUUCUUUUGCCAAUUCCACUAAUUGUUUGGG"}},
  "data": [
    {"variants_of": "B1", "experiment": "exon inclusion enrichment score (log2 ratio to wild type); higher = more inclusion; FAS exon 6 minigene, HEK293", "values": [
      {"variant": "GAUCCAGAUCUAACUUGGGGUGGCUUUGUCUUCUUCUUUUGCCAAUUCCACUAAUUGUUCGGG", "note": "[U60C]", "exon inclusion enrichment score": -0.19},
      {"variant": "GAUCCAGAUCUAACUUGGGGUGGCUUUGUCUUCUUCUUUUGCCAAUUCCACUAAUUGUUAGGG", "note": "[U60A]", "exon inclusion enrichment score": -2.55},
      {"variant": "GAUCCAGAUCUAACUUGGGGUGGCUUUGUCUUCUUCUUUUGCCAAUUCCACUAAUUGUUGGGG", "note": "[U60G]", "exon inclusion enrichment score": -0.709},
      {"variant": "GAUCCAGAUCUAACUUGGGGUGGCUUUGUCUUCUUCUUUUGCCAAUUCCACUAAUUGUUUCGG", "note": "[G61C]", "exon inclusion enrichment score": 0.061},
      {"variant": "GAUCCAGAUCUAACUUGGGGUGGCUUUGUCUUCUUCUUUUGCCAAUUCCACUAAUUGUUUUGG", "note": "[G61U]", "exon inclusion enrichment score": -0.154},
      {"variant": "GAUCCAGAUCUAACUUGGGGUGGCUUUGUCUUCUUCUUUUGCCAAUUCCACUAAUUGUUUAGG", "note": "[G61A]", "exon inclusion enrichment score": -1.32},
      {"variant": "GAUCCAGAUCUAACUUGGGGUGGCUUUGUCUUCUUCUUUUGCCAAUUCCACUAAUUGUCUGGG", "note": "[U59C]", "exon inclusion enrichment score": -0.032},
      {"variant": "GAUCCAGAUCUAACUUGGGGUGGCUUUGUCUUCUUCUUUUGCCAAUUCCACUAAUUGUAUGGG", "note": "[U59A]", "exon inclusion enrichment score": -0.31},
      {"variant": "GAUCCAGAUCUAACUUGGGGUGGCUUUGUCUUCUUCUUUUGCCAAUUCCACUAAUUGUGUGGG", "note": "[U59G]", "exon inclusion enrichment score": -0.228},
      {"variant": "GAUCCAGAUCUAACUUGGGGUGGCUUUGUCUUCUUCUUUUGCCAAUUCCAUUAAUUGUUUGGG", "note": "[C51U]", "exon inclusion enrichment score": -1.53},
      {"variant": "GAUCCAGAUCUAACUUGGGGUGGCUUUGUCUUCUUCUUUUGCCAAUUCCAAUAAUUGUUUGGG", "note": "[C51A]", "exon inclusion enrichment score": -1.68},
      {"variant": "GAUCCAGAUCUAACUUGGGGUGGCUUUGUCUUCUUCUUUUGCCAAUUCCAGUAAUUGUUUGGG", "note": "[C51G]", "exon inclusion enrichment score": 0.038},
      {"variant": "GAUCCAGAUCUAACUUGGGGUGGCUUUGUCUUCUUCUUUUGCCAAUUCCACUAAUUGUUUGCG", "note": "[G62C]", "exon inclusion enrichment score": -0.199},
      {"variant": "GAUCCAGAUCUAACUUGGGGUGGCUUUGUCUUCUUCUUUUGCCAAUUCCACUAAUUGUUUGAG", "note": "[G62A]", "exon inclusion enrichment score": -0.115},
      {"variant": "GAUCCAGAUCUAACUUGGGGUGGCUUUGUCUUCUUCUUUUGCCAAUUCCACUAAUUGUUUGUG", "note": "[G62U]", "exon inclusion enrichment score": -0.581},
      {"variant": "GAUCCAGAUCUAACUUGGGGUGGCUUUGUCUUCUUCUUUUGCCAAUUCCACUGAUUGUUUGGG", "note": "[A53G]", "exon inclusion enrichment score": 0.229},
      {"variant": "GAUCCAGAUCUAACUUGGGGUGGCUUUGUCUUCUUCUUUUGCCAAUUCCACUCAUUGUUUGGG", "note": "[A53C]", "exon inclusion enrichment score": -0.152},
      {"variant": "GAUCCAGAUCUAACUUGGGGUGGCUUUGUCUUCUUCUUUUGCCAAUUCCACUUAUUGUUUGGG", "note": "[A53U]", "exon inclusion enrichment score": -0.046},
      {"variant": "GAUCCAGAUCUAACUUGGGGUGGCUUUGUCUUCUUCUUUUGCCAAUUCCACUAAUUGUUUGGU", "note": "[G63U]", "exon inclusion enrichment score": -5.1},
      {"variant": "GAUCCAGAUCUAACUUGGGGUGGCUUUGUCUUCUUCUUUUGCCAAUUCCACUAAUUGUUUGGC", "note": "[G63C]", "exon inclusion enrichment score": -6.23},
      {"variant": "GAUCCAGAUCUAACUUGGGGUGGCUUUGUCUUCUUCUUUUGCCAAUUCCACUAAUUGUUUGGA", "note": "[G63A]", "exon inclusion enrichment score": -5.7},
      {"variant": "GAUCCAGAUCUAACUUGGGGUGGCUUUGUCUUCUUCUUUUGCCAACUCCACUAAUUGUUUGGG", "note": "[U46C]", "exon inclusion enrichment score": 0.336},
      {"variant": "GAUCCAGAUCUAACUUGGGGUGGCUUUGUCUUCUUCUUUUGCCAAGUCCACUAAUUGUUUGGG", "note": "[U46G]", "exon inclusion enrichment score": 0.344},
      {"variant": "GAUCCAGAUCUAACUUGGGGUGGCUUUGUCUUCUUCUUUUGCCAAAUCCACUAAUUGUUUGGG", "note": "[U46A]", "exon inclusion enrichment score": 0.041},
      {"variant": "GAUCCAGAUCUAACUUGGGGUGGCUUUGUCUUCUUCUUUUGCCAAUUCCACUAACUGUUUGGG", "note": "[U55C]", "exon inclusion enrichment score": 0.069},
      {"variant": "GAUCCAGAUCUAACUUGGGGUGGCUUUGUCUUCUUCUUUUGCCAAUUCCACUAAGUGUUUGGG", "note": "[U55G]", "exon inclusion enrichment score": 0.117},
      {"variant": "GAUCCAGAUCUAACUUGGGGUGGCUUUGUCUUCUUCUUUUGCCAAUUCCACUAAAUGUUUGGG", "note": "[U55A]", "exon inclusion enrichment score": 0.386},
      {"variant": "GAUCCAGAUCUAACUUGGGGUGGCUUUGUCUUCUUCUUUUGCCAAUUCCACUAAUAGUUUGGG", "note": "[U56A]", "exon inclusion enrichment score": -0.713},
      {"variant": "GAUCCAGAUCUAACUUGGGGUGGCUUUGUCUUCUUCUUUUGCCAAUUCCACUAAUCGUUUGGG", "note": "[U56C]", "exon inclusion enrichment score": 0.215},
      {"variant": "GAUCCAGAUCUAACUUGGGGUGGCUUUGUCUUCUUCUUUUGCCAAUUCCACUAAUGGUUUGGG", "note": "[U56G]", "exon inclusion enrichment score": 0.059},
      {"variant": "GAUCCAGAUCUAACUUGGGGUGGCUUUGUCUUCUUCUUUUGCCAAUCCCACUAAUUGUUUGGG", "note": "[U47C]", "exon inclusion enrichment score": -2.08},
      {"variant": "GAUCCAGAUCUAACUUGGGGUGGCUUUGUCUUCUUCUUUUGCCAAUACCACUAAUUGUUUGGG", "note": "[U47A]", "exon inclusion enrichment score": -0.214},
      {"variant": "GAUCCAGAUCUAACUUGGGGUGGCUUUGUCUUCUUCUUUUGCCAAUGCCACUAAUUGUUUGGG", "note": "[U47G]", "exon inclusion enrichment score": -1.62},
      {"variant": "GAUCCAGAUCUAACUUGGGGUGGCUUUGUCUUCUUCUUUUGCUAAUUCCACUAAUUGUUUGGG", "note": "[C43U]", "exon inclusion enrichment score": -2.69},
      {"variant": "GAUCCAGAUCUAACUUGGGGUGGCUUUGUCUUCUUCUUUUGCCGAUUCCACUAAUUGUUUGGG", "note": "[A44G]", "exon inclusion enrichment score": 0.314},
      {"variant": "GAUCCAGAUCUAACUUGGGGUGGCUUUGUCUUCUUCUUUUGCCCAUUCCACUAAUUGUUUGGG", "note": "[A44C]", "exon inclusion enrichment score": -0.731},
      {"variant": "GAUCCAGAUCUAACUUGGGGUGGCUUUGUCUUCUUCUUUUGCCUAUUCCACUAAUUGUUUGGG", "note": "[A44U]", "exon inclusion enrichment score": -1.32},
      {"variant": "GAUCCAGAUCUAACUUGGGGUGGCUUUGUCUUCUUCUUUUGCCAAUUCCACUAAUUUUUUGGG", "note": "[G57U]", "exon inclusion enrichment score": 0.003},
      {"variant": "GAUCCAGAUCUAACUUGGGGUGGCUUUGUCUUCUUCUUUUGCCAAUUCCACUAAUUAUUUGGG", "note": "[G57A]", "exon inclusion enrichment score": -0.066},
      {"variant": "GAUCCAGAUCUAACUUGGGGUGGCUUUGUCUUCUUCUUUUGCCAAUUCCACUAAUUCUUUGGG", "note": "[G57C]", "exon inclusion enrichment score": -0.537},
      {"variant": "GAUCCAGAUCUAACUUGGGGUGGCUUUGUCUUCUUCUUUUGCCAAUUCCACCAAUUGUUUGGG", "note": "[U52C]", "exon inclusion enrichment score": 0.564},
      {"variant": "GAUCCAGAUCUAACUUGGGGUGGCUUUGUCUUCUUCUUUUGCCAAUUCCACAAAUUGUUUGGG", "note": "[U52A]", "exon inclusion enrichment score": 0.166},
      {"variant": "GAUCCAGAUCUAACUUGGGGUGGCUUUGUCUUCUUCUUUUGCCAAUUCCACGAAUUGUUUGGG", "note": "[U52G]", "exon inclusion enrichment score": 0.635},
      {"variant": "GAUCCAGAUCUAACUUGGGGUGGCUUUGUCUUCUUCUUUUGCCAAUUUCACUAAUUGUUUGGG", "note": "[C48U]", "exon inclusion enrichment score": -2.35},
      {"variant": "GAUCCAGAUCUAACUUGGGGUGGCUUUGUCUUCUUCUUUUGCCAAUUGCACUAAUUGUUUGGG", "note": "[C48G]", "exon inclusion enrichment score": -1.23},
      {"variant": "GAUCCAGAUCUAACUUGGGGUGGCUUUGUCUUCUUCUUUUGCCAAUUACACUAAUUGUUUGGG", "note": "[C48A]", "exon inclusion enrichment score": -1.74},
      {"variant": "GAUCCAGAUCUAACUUGGGGUGGCUUUGUCUUCUUCUUUUGCCAAUUCCGCUAAUUGUUUGGG", "note": "[A50G]", "exon inclusion enrichment score": 0.131},
      {"variant": "GAUCCAGAUCUAACUUGGGGUGGCUUUGUCUUCUUCUUUUGCCAAUUCCCCUAAUUGUUUGGG", "note": "[A50C]", "exon inclusion enrichment score": -3.91},
      {"variant": "GAUCCAGAUCUAACUUGGGGUGGCUUUGUCUUCUUCUUUUGCCAAUUCCUCUAAUUGUUUGGG", "note": "[A50U]", "exon inclusion enrichment score": -1.12},
      {"variant": "GAUCCAGAUCUAACUUGGGGUGGCUUUGUCUUCUUCUUUUGCCAAUUCGACUAAUUGUUUGGG", "note": "[C49G]", "exon inclusion enrichment score": 0.869},
      {"variant": "GAUCCAGAUCUAACUUGGGGUGGCUUUGUCUUCUUCUUUUGCCAAUUCAACUAAUUGUUUGGG", "note": "[C49A]", "exon inclusion enrichment score": 1.46},
      {"variant": "GAUCCAGAUCUAACUUGGGGUGGCUUUGUCUUCUUCUUUUGCCAAUUCUACUAAUUGUUUGGG", "note": "[C49U]", "exon inclusion enrichment score": -0.226},
      {"variant": "GAUCCAGAUCUAACUUGGGGUGGCUUUGUCUUCUUCUUUUGCCAAUUCCACUAGUUGUUUGGG", "note": "[A54G]", "exon inclusion enrichment score": -0.319},
      {"variant": "GAUCCAGAUCUAACUUGGGGUGGCUUUGUCUUCUUCUUUUGCCAAUUCCACUACUUGUUUGGG", "note": "[A54C]", "exon inclusion enrichment score": 0.187},
      {"variant": "GAUCCAGAUCUAACUUGGGGUGGCUUUGUCUUCUUCUUUUGCCAAUUCCACUAUUUGUUUGGG", "note": "[A54U]", "exon inclusion enrichment score": -0.013},
      {"variant": "GAUCCAGAUCUAACUUGGGGUGGCUUUGUCUUCUUCUUUUGCCACUUCCACUAAUUGUUUGGG", "note": "[A45C]", "exon inclusion enrichment score": -3.69},
      {"variant": "GAUCCAGAUCUAACUUGGGGUGGCUUUGUCUUCUUCUUUUGCCAUUUCCACUAAUUGUUUGGG", "note": "[A45U]", "exon inclusion enrichment score": -1.33},
      {"variant": "GAUCCAGAUCUAACUUGGGGUGGCUUUGUCUUCUUCUUUUGCCAGUUCCACUAAUUGUUUGGG", "note": "[A45G]", "exon inclusion enrichment score": -0.008},
      {"variant": "GAUCCAGAUCUAACUUGGGGUGGCUUUGUCUUCUUCUUUUGCCAAUUCCACUAAUUGCUUGGG", "note": "[U58C]", "exon inclusion enrichment score": -0.116},
      {"variant": "GAUCCAGAUCUAACUUGGGGUGGCUUUGUCUUCUUCUUUUGCCAAUUCCACUAAUUGGUUGGG", "note": "[U58G]", "exon inclusion enrichment score": -0.27},
      {"variant": "GAUCCAGAUCUAACUUGGGGUGGCUUUGUCUUCUUCUUUUGCCAAUUCCACUAAUUGAUUGGG", "note": "[U58A]", "exon inclusion enrichment score": 0.099}
    ]}
  ]
}
